# Source: the DeepSol protein solubility set
# Assay: soluble on expression in E. coli; label from the status in PepcDB or PDB records
row,Sequence,soluble on expression in E. coli
1,MDAEPKRKFGVVVVGVGRAGSVRLRDLKDPRSAAFLNLIGFVSRRELGSLDEVRQISLEDALRSQEIDVAYICSESSSHEDYIRQFLQAGKHVLVEYPMTLSFAAAQELWELAAQKGRVLHEEHVELLMEEFEFLRREVLGKELLKGSLRFTASPLEEERFGFPAFSGISRLTWLVSLFGELSLISATLEERKEDQYMKMTVQLETQNKGLLSWIEEKGPGLKRNRYVNFQFTSGSLEEVPSVGVNKNIFLKDQDIFVQKLLDQVSAEDLAAEKKRIMHCLGLASDIQKLCHQKK,soluble
2,MAHHHHHHMPLRACVSRTPAQARLVEVVSDYVQHLMDMQASRCAETSLDGHVVPPPNAKYPSHDFFCATHAPAISVKKYTDRLVTYMHCSPEAFVFAVAYLRRLVLSGFPMHLQSIHRLLLTAVLVALKCRDDVYYHMSFYAEVGGVTSKDLRIMEIRFLSDLIRFEGEVSLADYHVVMVDMMRVTERRMITNISGKTEMCNRCGMSAGAFTTSIPGDLGCLHCKGDAFAHSWTSECELFWGPLNSAFSLPSGEV,not soluble
3,MEIRVANKYALGKKLGSGSFGDIYVAKDIVTMEEFAVKLESTRSKHPQLLYESKLYKILGGGIGVPKVYWYGIEGDFTIMVLDLLGPSLEDLFTLCNRKFSLKTVLMTADQMLNRIEYVHSKNFIHRDIKPDNFLIGRGKKVTLIHIIDFGLAKKYRDSRSHTHIPYKEGKNLTGTARYASINTHLGIEQSRRDDIEALGYVLMYFLRGSLPWQGLKAISKKDKYDKIMEKKISTSVEVLCRNASFEFVTYLNYCRSLRFEDRPDYTYLRRLLKDLFIREGFTYDFLFDWTCVYASEKDKKKMLENKNRFDQTADQEGRVKQN,not soluble
4,MMTDEERIELQQNNPLHGLKLETLLQELVDFYGWEILDTAMRLNCFNTNPSVASSVKYLKKTEWAREKLENFYLYRFKRMPRASNLEYDKPPRARTFPHGLEPKEPMELTVDSILKSQAKAASAHKARTSNRGGNYRRLEHHHHHH,soluble
5,MSLAVVKGARVQVPFGQQIKVGIVVDLPSTTDIPQSKLKPIHAVLDHQAIFDPEIWQLLHWAASYYHAAIGEVLASALPVKLRNGDAAEYVENDYFRVTELGQQRLVSPENKRSKKQYDLLSRLAEIAGFFEKPAGVSPSVWKALLEKGYLAKVVPTCQRKSWQQSLANRPLVNSQSRLVLNQQQTLVVSRLNACQNFETFLLNGITGSGKTEVYLQVIEQILKQDKQVLVLVPEIGLTPQMVNRFKTRFNVEIDVLHSNINETMRLKVWLKAKNGESAIVIGTRSALFTQFQRLGLIIIDEEHDHSFKQQEGWRYHARDVAIFRAKCLNIPIILGSATPSLESVYNVKNGKFTQLLLSTRAGNAEIAQQQLIDLKTQRITAGLSDRLLMLMQTHLQKGNQVMLFLNRRGFAPVLLCHECGWICECDACEKPYTYHQKQRVLRCHHCASQRVIPRQCGYCGSTNLITTGIGTEQLEQLLSEYFPTYQISRIDRDSTGRKGALEHHLNAIQTGKSQILIGTQMLAKGHHFPNVTLVALVNVDSALFSTDFRAEERLAQLYLQVAGRAGRAEKTGEVVLQTHYPDHPLLKCLLKDGYNAFAEEALKMRQVMALPPFTAQVLFRATGKQSDKVEHLLQNLTAYFQHKSVELGIEGIQISPPFSAIVAKKAGYYRWLLLIQHQSRSAIQQLLNVFDQEKSALNLPANIRLSLDVDPYDMSEGHHHHHH,soluble
6,MAEREFDMTIEEVTIKVAPGLDYKVFGFNGQVPGPLIHVQEGDDVIVNVTNNTSLPHTIHWHGVHQKGTWRSDGVPGVTQQPIEAGDSYTYKFKADRIGTLWYHCHVNVNEHVGVRGMWGPLIVDPKQPLPIEKRVTKDVIMMMSTWESAVADKYGEGGTPMNVADYFSVNAKSFPLTQPLRVKKGDVVKIRFFGAGGGIHAMHSHGHDMLVTHKDGLPLDSPYYADTVLVSPGERYDVIIEADNPGRFIFHDHVDTHVTAGGKHPGGPITVIEYDGVPVDDWYVWKDKDYDPNFFYSESLKQGYGMFDHDGFKGEFEQRQRRPGRKLAAALEHHHHHH,soluble
7,MASGILVNVKEEVTCPICLELLTQPLSLDCGHSFCQACLTANHKKSMLDKGESSCPVCRISYQPENIRPNRHVANIVEKLREVKLSPEGQKVDHCARHGEKLLLFCQEDGKVICWLCERSQEHRGHHTFLTEEVAREYQVKLQAALEMLRQKQQEAEELEADIREEKASWKTQIQYDKTNVLADFEQLRDILDWEESNELQNLEKEEEDILKSLTNSETEMVQQTQSLRELISDLEHRLQGSVMELLQGVDGVIKRTENVTLKKPETFPKNQRRVFRAPDLKGMLEVFRELTDVRRYWGKEKSHYHKPPCGLSLLLSLSFRILCSLLGSCFKIYDSPSKTHITYPSL,soluble
